Experimental data from US9750823B2, “Use of a truncated CCN1 promoter for cancer diagnostics, therapeutics and theranostics” (priority 2013, dated 2017).

Legend:
[1] = test system: src-, raf-, ras- and HPV-transformed CREF cells; assay: Luciferase reporter assay of p-CCN1-luc and/or TPA in transformed CREF cells; assay type: cell-based, rat; conditions: for effect on expression of the tCCN1-Prom: TPA 200 ng/ml
Procedure: FIGS. 1A and B. tCCN1 promoter activity in Prostate cancer (PC) and cloned rat embryo fibroblast (CREF) series of cell lines. […] B. src-, raf-, ras- and HPV-transformed CREF cells were treated with p-CCN1-luc and/or TPA (200 ng/ml).

[2] = test system: breast, brain (including Glioblastoma multiforme, GBM) and melanoma; assay: tCCN1-Prom expression in additional human cancers vs normal counterparts (data not shown); assay type: cell-based
[3] = test system: prostate cancer cells lines DU-145, PC-3, ARCaP, ARCaP-E, ARCaP-M and normal human prostate epithelial cell lines RWPE-1 and P69; assay: Dual-luciferase reporter assay of promoter activity (pCCN1-luc vs pPEG-luc); assay type: cell-based; conditions: pGL3-luc reporter, normalized with pRL-TK
From the text: FIGS. 1A and B. tCCN1 promoter activity in Prostate cancer (PC) and cloned rat embryo fibroblast (CREF) series of cell lines. A. Prostate cancer DU-145, PC-3, ARCaP, ARCaP-E, and ARCaP-M cells and normal RWPE-1 and P69 cells were transfected with pGL3-luc reporter vector driven by PEG-Prom (pPEG-luc) or tCCN1-Prom (pCCN1-luc). pRL-TK (Renilla luciferase) was co-transfected for the normalization of luciferase activity, and the luminescence readings were plotted as relative luminescence units (RLU). *(p<0.05), **(p<0.01) and ***(p<0.001) indicates the statistical significance by using t-test between pPEG-luc and pCCN1-luc transfected cells. B. src-, raf-, ras- and HPV-transformed CREF cells were treated with p-CCN1-luc and/or TPA (200 ng/ml). The results were recorded as RLU. *(p<0.05) and **(p<0.01) indicates the statistical significance between pCCN1-luc and pCCN1-luc plus TPA treated cells.
Prostate cancer cells were plated at seeding density of 30,000 cells/well in quadruplicate in 24-well cell culture plate. After 24 h, cells were transfected with either pGL3.PEG-luc or pGL3.CCN1-hie using Fugene® HD transfection reagent (Promega, Madison, Wis., USA). […] Cells were lysed after 48 h of post transfection and luminescence was studied using Dual-luciferase Reporter® Assay system (Promega) with luminometer. […]

Nc1ncnc2c1ncn2[C@@H]1O[C@@H]2COP(=O)(O)O[C@H]2[C@H]1O [cyclic adenosine mono-phosphate (AMP), cyclic adenosine mono-phosphate]
effect on expression of the tCCN1-Prom [1]: increased the expression of the tCCN1-Prom

CCCCCCCCCCCCCC(=O)O[C@@H]1[C@@H](C)[C@@]2(O)[C@@H](C=C(CO)C[C@]3(O)C(=O)C(C)=C[C@@H]23)[C@@H]2C(C)(C)[C@]12OC(C)=O [TPA]
effect on expression of the tCCN1-Prom [1]: increased the expression of the tCCN1-Prom

B1: tCCN1-Prom: truncated CCN1 cancer selective promoter, SEQ ID NO: 1; tested in reporter plasmid pGL3.CCN1-luc (pCCN1-luc) (nucleic acid)
DNA: TCCAAAAACAAACAAGTACAACATACCCAAAAGAGGGAAGGGCTGGAGGAGTGGGGGAGACCTCTGCCTGGGAATTTGCCAGACGATGGGCAAGTTTCCCCCCGCCCCACCCCCCCCCCCGCCTTTTCATTCATAAATGCCACTGTGGGTATTAATTTGCAATTCACTGAACTTTGCTAATAAACATCATGCCAAAGCTTTGGGACTTGTTCCGAACACGCCTCTTTGAAGTCCACAAATATTCCTGACTCAGAGACACACTCCTCTTCCCCGTTCTACTCTTTCAACAGATAACTTGCCTCTCACCTTCGCTGTAAAAAAGCAAACAGCTCACTGCCTTCCCGGGTGAGGGCTTCAGTGGCTGCCCGGTCAACTCGCATCACCAAACAAAACGACTTTTGTTCCTCCCTCTCAGGTCCTCCCACCCACCCAGTCCAGGCAAAGTTCTGAACTGGCCCCCTCGCCCCTCACGACCCTCCAACTACCATCACCACCATCACGCCCCAAAGAACCCTTCCCAACATAAGTCGTAATTTAAGGTGGAAAAAACGAACTGTTTTCTTGACGGGTCTGGGACACACACACACACACACACACACACACACACCGAACTGTTTTCTTGACGGGTCTGGGAGACACACACACACACACACACACACACACACACACACACACACACACAAAGGTGCAATGGGGCCAGGGGAGGCGCTTGGCAGCAGCCCGCGCCAACCAGCATTCCTGAGATGTTTGAGAATTCTGGAACGCGCAGACAGAGCCGACGTCACTGCAACACGCGGCGCCTCCGCCGGCCCGTATAAAAGGCGGGCTCCGGGGCGCC
modifications: Synthetic promoter
tCCN1-Prom expression in additional human cancers vs normal counterparts [2]: elevated expression in additional human cancers vs. normal immortal or primary normal counterparts
tCCN1-Prom activity compared with PEG-Prom (relative luminescence units) [3]: more active than the PEG-Prom in prostate cancer cells as compared to normal counterparts RWPE-1 and P69
tCCN1-Prom activity in transformed CREF cells ([1]; src-, raf-, ras- and HPV-transformed CREF cells): elevated as a function of transformation of CREF cells by diverse acting oncogenes
